Experimental findings from doi:10.1101/505453 are described below.

The assay concerns the target Oryza sativa hyperosmolality-gated protein OsOSCA1.2 (Oryza sativa (rice)). The assay is described as follows: SEC-MALS. (Size exclusion chromatography separates by hydrodynamic size, large species first.)

By stoichiometry N is commonly meant the number of molecules, sites or subunits per partner or assembly. On to “Oryza sativa hyperosmolality-gated protein OsOSCA1.2 (natural protein)”, for which the stoichiometry N was found to be 2.
